The record followed here is paper doi:10.1101/2024.02.13.580058 (bioRxiv, 2024).

B1: ElsE7 (antibody)
VH: QVQLQESGPSLVKPSQTLSLTCTTSGFSLSDNTVGWVRQAPGKALQWLGSITPSGSTNYNPGLKSRLGITKDNSNSQVSLSLTSATAADSATYYCTTVHQQTRKSCPDGWMFGFDCGFHGWGSEDCVDDCSDILSAQTLSPIYTNAYHVDAWGQGLLVTVSS
VL: QAVLTQPSSVSGSLGQTVSITCSGLSNNGENGDVSWYQLIPGSAPHTLMYGDTSRASGVPDRFSGSRSGNTASLTISSLQAEDEADYFCASTGDEMISLLFGSGTTLTVL
notes: source: Expi293 or 293F cells, transient, purified (Protein A Sepharose or Praesto AP)
B2: ElsE9 (antibody)
VH: KVQLRESGPSLVKPSQTLSLTCTTSGFSFSDKTVGWVRQAPGKALEWLGSIDTSGTTGYNPGLKSRLSITRDDSKSQVSLSLSSVTTADLATYYCTTVRQQVHKTCPQGWRFGWDCGFHGYGSDDCYEDCIDILSSQTLSAEDTYELHVDAWGQGLLVTVSS
VL: QAVLTQPQSVRGSLGQRVSITCSGSSSNVGNGYVSWYQLIPGSAPRTLMYGDTTRASGVPDRFSGSRSGNTATLTISSLQAEDEADYFCASADGSSLHVAFGSGTTLTVL
notes: as for B1
B3: Bess1 (antibody)
VH: QVQLRESGPSLVKPSQTLSLTCTVSGISLSDKAVGWVRQAPGKALEWLGSIDAGGSTGYNPGLKSRLSITTDNSKSQVSLSMSGVTTEDSATYYCTTVHQKTLKQKTCPEGYSDDDGCDDSYGCGDDCCCYGGYSDYGGYEYACCSRTYTYEFHVDAWGQGLLVTVSS
VL: QAVLNQPSSVSGSLGQRVSITCSGSSSNVGNGYVSWYQLIPGSAPRTLIYGDTSRASGVPDRFSGSRSGNTATLTISSLQAEDEADYFCASAEDSSSNAVFGSGTTLTVL
notes: also called Bess1_WT; source: Expi293 or 293F cells, transient, purified (Protein A Sepharose or Praesto AP)
B4: Bess2 (antibody)
VH: KVQLRESGPSLVKPSQTLSLTCTVSGFSLSDKAVGWVRQAPGKALEWLGSIDTGGSTGYNPGLKSRLSITKDNSKSQVSLSVTSVTTEDSTTYYCTTVHQTTKTTKKCPDGYNYDDGCASDLGCGEADCCCYGGYDEYGGYLYSCCSYSYTYEWYVDAWGQGLLVTVSS
VL: QAVLNQPSSVSGSLGQRVSITCSGSSSNVGNGYVSWYQLIPGSAPRTLIYGDTSRASGVPDRFSGSRSGNTATLTISSLQAEDEADYFCASAEDSSSNAVFGSGTTLTVL
notes: as for B1
B5: ElsE5 (antibody)
VH: QVQLQESGPSLVKPSQTLSLTCTTSGFSLSDKTVGWVRQAPGKALEWLGSIDTSGRTGYNPGLKSRLDITKDNPKRQVSLSLSSVTTADSATYYCTTVHQQTRKGCPDGWSFGWDCGFHGYGREDCYDDCTDILSSQTLSPTDTYEFHVDAWGQGLLVTVSS
VL: QAVLTQPSSVSGSLGQRVSITCSGSSSNVGNGYVSWYQLIPGSAPRTLIYGDTTRASGVPDRFSGSRSGNTATLSITSLQAEDETDYFCASAEDSSSNAVFGSGTTLTVL
notes: as for B1
B6: Bess3 (antibody)
VH: QVQLRESGPSLVKPSQTLSLTCTVSGFSLSDKAVGWVRQAPGKALEWLGSIDNGENIGYNPGLKSRLSITKDNSKSQVSLSVSSVTTEDSATYYCATVHQTTKTTKQCPDGYNYDDGCASDLGCGEADCCCYGGYDDYGGYLYSCCSYTYTYEWYVDTWGQGLLVTVSS
VL: QAVLNQPSSVSGSLGQRVSITCSGSSSNVGNGYVSWYQLIPGSAPRTLIYGDTSRASGVPDRFSGSRSGNTATLTISSLQAEDEADYFCASAEDSSSNAVFGSGTTLTVL
notes: as for B1
B7: ElsE11 (antibody)
VH: KVQLRESGPSLVKPSQTLSLTCTTSGFSLSDKTVGWVRQAPGKALEWLGSTDTSGNTGYNPGLKSRLSITKDNSKSQVSLSVSSVSTADSATYYCTTVRQQTRKSCPDGWTLAKDCGFYGYGSEDCYDDCTDILSSNTLSPTTTHEFNVDAWGQGLLVTVSS
VL: QAVLTQPSSVSGSLGQRVSITCSGSSSNTGNGAVSWYQLIPGSAPRTLIYGDTSRTSGVPDRFSGSRSGNIATLTISSLQAEDEGDYFCGSAEDSSSNAIFGSGTTLTVL
notes: as for B1
B8: ElsE6 (antibody)
VH: KVQLQESGPSLVKPSQTLSLTCTTSGFSLSDNAVGWVRQAPGKALEWLGSIDSGGSTGYNPGLKSRLSITKDNSKSQVSLSVSSVTTADSATYYCTTVHQQTRKSCPAGYTLAKDCGFYGYGSEDCYDDCSDILSSHTLSPTTTYELHVDAWGQGLLVTVSS
VL: QAVLTQPSSVSGSLGQRVSITCSGSSTNVGNGYVSWYQLIPGSAPRTLIYGDTNRASGVPDRFSGSRSGNTATLTISSLQAEDEADYFCLSAEDSSSNAIFGSGTTLIVL
notes: as for B1
B9: ElsE8 (antibody)
VH: KVQLQESGPSLVKPSQTLSLTCTTSGFSLSDKGIAWVRQAPGKALEWLGSTDTTGSTNYNPGLKSRVIVTKDNSKSQVSLSLSSVTIADSATYYCTAVVQETRKSCPDGWRFGWDCGFHGYGTEDCYEDCVDILSSETVSSTDRYELHVDAWGQGLLVTVSS
VL: QAVLSQPSSVSGSLGQRVSITCSGSSSNVGNGYVSWYQQFPGSAPRTLIYGDTGRSSGVPDRFSGSRSGNTATLSISSLQAEDEADYFCASAEGSSKHAVFGSGTTLTVL
notes: as for B1
B10: Bess5 (antibody)
VH: QVQLQESGPSLVKPSQTLSLMCAASGFSLSDKTVGWVRQAPGKALEWLGSIDSSGSTGYNPGLKSRLTITKDSSKSQVSLSVSSVTTEDSATYYCTTVHQQTRNKEKTCPGGEDCGIGCCCAGCSATDYGCWDGSSYASYSYIYTYDIHVDAWGQGLLVTVSS
VL: QAVLNQPSSVSGSLGQRVSITCSGSSSNVGNGYVSWYQLIPGSAPRTLIYGDTSRASGVPDRFSGSRSGNTATLTISSLQAEDEADYFCASAEDSSSNAVFGSGTTLTVL
notes: as for B1
B11: ElsE3 (antibody)
VH: KVQLQESGPSLVKPSQTLSLTCATSGFSLSDKTVGWVRQAPGKALEWLGSIDTSGNTGYNPLLKFRLSITKDNSKSQVSLSLSSATTADSATYYCTTVHQQTRKSCPDGYSFGYDCGFHGYGSEDCYPDCSDILTSDVVGPIDAYELHVDAWGQGLLVTVSS
VL: QAVLTQPSSVSGSLGQRVSITCSGSSNNVGNGYVSWYQVIPGSAPRTLIYGDTSRASGVPDRFSGSRSGNTATLTITSLQAEDEADYFCSSAEDSSSNAIFGSGTTLTVL
notes: as for B1
B12: Bess8 (antibody)
VH: QVQLRESGPSLVKPSQTLSLTCTVSGFSLSDKAVGWVRQAPGKALEWLGSIDIGGSTGYNPGLKSRLSITKDNSKSQVSLSVTSVTTEDSATYYCTIVYQTTKTTKKCPDGYNYDDGCASDLGCGEADCCCYGGDDEYAGHLYSCCSYSHTYEWYVGAWGQGLLVTVSS
VL: QAVLNQPSSVSGSLGQRVSITCSGSSSNVGNGYVSWYQLIPGSAPRTLIYGDTSRASGVPDRFSGSRSGNTATLTISSLQAEDEADYFCASAEDSSSNAVFGSGTTLTVL
notes: as for B1
B13: Bess7 (antibody)
VH: QVQLRESGPSLVKPSQTLSLTCTVSGFSLNDKAVGWVRQAPGRALEWLGSVSTGGSTTYNPGLKPRLSITKDNSKSQISLTVTSVTTEDSATYYCTTVHQTTKTTKECPEGYNWDDGCGSELGCGGADCCCWGGVDEYAGDLYSCCSVAHTYEWYVDAWGQGLLVTVSS
VL: QAVLNQPSSVSGSLGQRVSITCSGSSSNVGNGYVSWYQLIPGSAPRTLIYGDTSRASGVPDRFSGSRSGNTATLTISSLQAEDEADYFCASAEDSSSNAVFGSGTTLTVL
notes: as for B1
B14: ElsE4 (antibody)
VH: QVQLRESGPSLVKPSQTLSLTCTTSGFSLSDKTVGWVRQAPGKALEWLGSRDSSGKTAYNPGLKSRLSITNDNSKSQVSLSLSSVSTADSATYYCTTVHQQTRKSCPDGWSFGWDCGFHGYGVGDCYDDCTDILSSQTLSPTDTYELHIDAWGQGLLVTVSS
VL: QAVLTQPSSVSGSLGQTVSITCSGTSSNVGNGYVTWYQVIPRSAPRTLIFGDTSRASGVPDRFSGSRSGNTATLTISSLQAEDEADYFCASAEDTSSNVVFGSGTTLTVL
notes: as for B1
B15: ElsE1 (antibody)
VH: KVQLRESGPSLIKPSQTLSLTCTTSIFSLIDKTVGWVRQAPGKSLEWLGSIDTSGNTGYNPGLKSRLHITKDNSRSQVSLSLSSVTTADSATYYCTTVHQQTRKGCPDGWRFGWDCGFHGYGQEDCYEDCIDILSSQTLSPTDAYEFHVDAWGQGLLVTVSS
VL: QAVLTQPSSVSGSLGQRVSITCSGSSGNVGNGYVSWYQLIPGSAPRTLIYGDTSRASGVPDRFSGSRSGNTATLTITSLQAEDETDYFCASAEGSSNNAVFGSGTTLTVL
notes: as for B1
B16: Bess6 (antibody)
VH: KVQLRESGPSLVKPSQTLSLICTVSGFSLSDKAVGWVRQAPGKALEWLGSIDTAGTTDHHPGLKSRLSITKDNSKNQVSLSLSSVTTEDSATYYCTTVHQPTSKQYSCPDGASVRTGGGWRWLCRGHDCCCVVEYIAYEQTPCTLTRTYEWHIDAWGQGLLVTVSS
VL: QAVLNQPSSVSGSLGQRVSITCSGSSSNVGNGYVSWYQLIPGSAPRTLIYGDTSRASGVPDRFSGSRSGNTATLTISSLQAEDEADYFCASAEDSSSNAVFGSGTTLTVL
notes: as for B1
B17: ElsE10 (antibody)
VH: KVQLRESGPSLVKPSQTLSLTCTTSGFSLSEKTVGWVRQAPGKPLEWLGTINTSGSGGSNPGLKSRLHITKDNSQSQVSLSLSSVTTADSATYYCTTVHQQTRKRCPDGWSFGWDCGFSGYGSEDCYDDCTDILSSNTLSPTDTYELHVDAWGQGLLVTVSS
VL: QAVLTQPSSVSGSLGQRVSITCSGSSSNVGNGYVSWYQLIPGSAPRTLIYGDTSRASGVPDRFSGSRSGNTATLTISSLQAEDEADYFCASAEGSSSNIVFGVGTTLTVL
notes: as for B1

This test concerns the target BG505 gp120 (HIV-1 isolate BG505 (clade A), UniProt Q2N0S6). The test is described as follows: ELISA; 250 ng BG505 gp120 coated on the plate; monoclonal antibodies from 20 µg/mL in seven 6-fold dilutions, 1 hr, room temperature; detected with alkaline phosphatase anti-human F(ab')2. To be noted: both partners purified.
In the case of B1, the binding result is given as “no binding (tested: 20 µg/mL)”. As for B2, the binding result is “no binding (tested: 20 µg/mL)”.

For the molecule B3, the binding result is “no binding (tested: 20 µg/mL)”.

For the molecule B4, the binding result is “no binding (tested: 20 µg/mL)”. To B5 belongs “no binding (tested: 20 µg/mL)”; to B6, “no binding (tested: 20 µg/mL)”. For B7, the binding result is reported as “no binding (tested: 20 µg/mL)”.

Take B8: the binding result is “no binding (tested: 20 µg/mL)”. To B9 belongs “no binding (tested: 20 µg/mL)”. With B10 the entry was “no binding (tested: 20 µg/mL)”; with B11, “no binding (tested: 20 µg/mL)”; with B12, “no binding (tested: 20 µg/mL)”. To B13 belongs “no binding (tested: 20 µg/mL)”; to B14, “no binding (tested: 20 µg/mL)”. Turning to B15, the binding result is “no binding (tested: 20 µg/mL)”. To B16 belongs “no binding (tested: 20 µg/mL)”; to B17, “no binding (tested: 20 µg/mL)”.
